The source of these data is the nanobody polyreactivity screen of Harvey et al. (2022).

This series in a line: yeast display, Sf9 membrane polyspecificity reagent, FACS + sequencing; frameworks hold sequencing errors. The procedure, abridged: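 A nanobody's polyreactivity label depends on the gate it was sorted from. Yeast display cells were stained with 10% biotinylated, detergent-solubilized Sf9 membrane reagent for 1 hour at 4 °C, enriched on streptavidin microbeads and sorted by FACS. The low and high (top ~1%) gates were set on anti-HA fluorescence for expression and streptavidin fluorescence for reagent binding.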
For “QVQLVESGGGLVQAGGSLRLSCAASGSTFKTYSMGWYRQAPGKERELVAAISGNGGSTYYADSVKGRFTISRDNAKNTVYLQMNILIPEDTAVYYCAAKRRRHFSRGYEYWGQGSQVTVSS”, the “polyreactivity (PSR sort gate)” value is recorded as “high polyreactivity”.

As for “QVQLVESGGGLVQAGGSLRLSCAASGRIFVYYAMGWYRQAPGKERELVAAITYSVDSTYYADSVKGRFTISRDNAKNTVYLQMNSLKPEDTAVYYCATDVDWAYGYQYEYWGQGTQVTVSS”, the “polyreactivity (PSR sort gate)” value is reported as “low polyreactivity”.

Take “QVQLVESGGGLVQAGGSLRLSCAASGRTFVSNDMGWYRQAPGKERELVATISSGASTYYADSVKGRFTISRDNAKITVYLQMNSLKPEDTAVYYCAAEVLVFGGGYDYWGQGTQVTVSS”: the “polyreactivity (PSR sort gate)” value is “low polyreactivity”.

In the case of “QVQLVESGGGLVQAGGSLRLSCAASGFTFWEYAMGWYRQAPGKERELVAAISSRGTRTYYADSVKGRFTISRDNAKNTVYLQMNSLKPEDTAVYYCATAIPDPDYIHNYWGQGTQVTVSS”, the “polyreactivity (PSR sort gate)” value is “high polyreactivity”.

Regarding “QVQLVESGGGLVQAGGSLRLSCAASGRTFYYYAMVWYRQAPGKERELVAAINSGGSTNYADSVKGRFTISRDNAKNTVYLQMNSLKPEDTAVYYCAKRAYTTVYGPVNYGFNYWGQGTQVTVSS”, the “polyreactivity (PSR sort gate)” value is “low polyreactivity”.

On to “QVQLVESGVRVVQAGGSLRLRCAASGFTFRDYTMGWYRQAPGKERELVAAISRSGGSTYYADSVKGRFTISRDNAKNTVDLQMNSLKPEDTAVYYCAALWHAVSYADYDYWGQGTQVTVSS”, for which the “polyreactivity (PSR sort gate)” value is recorded as “high polyreactivity”.

In the case of “QVQLVESGGGLVQAGGSLRLSCAASGRIFTWYAKGWYRQAPGKERELVAAISWSGGRTYYADSVKGRFTISRDNAKNTVYLQMNSLKPEDTAVYYCNAVPSVRWRYDYWGQGTQVTVSS”, the “polyreactivity (PSR sort gate)” value is listed as “high polyreactivity”.

As to “QVQLQESGGGLVQAGGSLRLSCAASGYISHADEMGWYRQAPGKEHELVASISNGGSTNYADSVKGRFTISRDNAKNTVYLQMNSLKSEDTAVYYCAAWTGQVDIHYYWGLGTQVTVSS”, the “polyreactivity (PSR sort gate)” value is given as “low polyreactivity”.

On to “QVQLVESGGGLVQAGGSLRLSCAASGRIFYVYAMGWYRPAPGKERELVAAITQSGGRTYYADSVKGRFTISRDNAKNTVYLQMNSLKPEDTAVYYCNADGDDLDWNYYLVQYDYWGQGTQVTVSS”, for which the “polyreactivity (PSR sort gate)” value is “low polyreactivity”.

With “QVQLVESGGGLVQAGGSLRLSCAASGRIFYQNTMGWYRQAPGKEREFVARINWSGGSTYYADSVKGRFTISRDNAKITVYLQMNSLKPEDTAVYYWAKASQSWGRDDYYYWGQGTQVTVSS”, the “polyreactivity (PSR sort gate)” value is recorded as “low polyreactivity”.

Consider “QVQLVESGGGLVQAGGSLRVSCAASGRIFFRNAMGWYRQAPGKESELVAAITRGGGSTYYADSVKGRFTISRDNATNTVYLQMNSLKPEDTEVYYCAAGAGYSLYSAYDYWGQGTQVTVSS”, for which the “polyreactivity (PSR sort gate)” value is reported as “low polyreactivity”.

In the case of “QVQLVESGGGLVQAGGSLRLSCAASGSTVEYNAMGWYRQAPGKERELVASSTNYADSVKGRFTISRDNAKNTVYLQMNSLKPEDTAVYYCAASSLPHDSYRHSYLYEYWGQGTQVTVSS”, the “polyreactivity (PSR sort gate)” value was “low polyreactivity”.

As for “QVQLVESGGGLVQAGGSIRLSCAASGGTFSAYAMGWYRQAPGKERELVAAINISGGRTYYADSVKGRFTISRDNAKNTVYLQMNSLKPEDTAVYYCAAKNFRDRGNDYWGQGTQVTVSS”, the “polyreactivity (PSR sort gate)” value was “high polyreactivity”.

As to “QVKLVESGGGLVQAGGSLRLTCAASGITFFIYAMGWYRQAPGKERELFYAIRSGGSTNYADSVKGRFTISRDNAKNTVYLQMNSLKPEDTAVYYCAADVYGTVRRVGWYYVGEGYDYWGQGTQLTVSS”, the “polyreactivity (PSR sort gate)” value is listed as “low polyreactivity”.

On to “QVQLVESGGGLVQAGGSLRLSCAASGFIFYKNAMGWYRQAPGKERELVAAISSRGGSTSYADSVKGLFTISRDNAKNTVYLQMNSLKQEDTAVYYCAAYPDYSYFYWGQGTQVTVSS”, for which the “polyreactivity (PSR sort gate)” value is given as “high polyreactivity”.

Take “QVQLVESGGGLVHAGGSLRLSCAASGRTFASYAIGWYRQAPGKERELVARISKSGGSTYYADSVKGRFTISRDNAKNTVYLQMNSLKPEDTAVYYCAATRYPYLYRSEVGSDYWGQGTQVTVSS”: the “polyreactivity (PSR sort gate)” value is “low polyreactivity”.

As to “QVQIVESGGGLVQAGGSLRLSCAASGRTFDHNAMGWYRQAPGKERELVATISGSGGSTNYADSVKGRFTISRDNAKNTVDLQMNSLKPEDTAVYYCATPRVWYYNQYSELDYWGQGTQVTVSS”, the “polyreactivity (PSR sort gate)” value is reported as “high polyreactivity”.

“QVQLVESGGGLVQAGGSLRLSCAASGFIFWANAMGWYRQAPGKERELVAAITWRNGRTYYADSVKGRFTISRDNAKNTVYLQMNSLKPEDTAVYYCAAPGSYARGTGRDYWGQGTQVTVSS”: the “polyreactivity (PSR sort gate)” value is “high polyreactivity”.

With “QVQLVESGGGLVQAGGSLRLSCAASGRIVFYAMGWYRQAPGKERELVAAITGSGGRTYYADSVKGRFTISRDNAKITVYLQMNSLKPEDTAVYYCAARKWRHGYQGDYWGQGTQVTVSS”, the “polyreactivity (PSR sort gate)” value was “high polyreactivity”.

As for “QVQLVESGGGLVQAGGSLRLSCAASGFTFDYYTMGWYRQAPGKERELVATITRSAGRTYYADSVKGRFTISRDNAKNTVYLQMNSLKPEDTAVYYCNADAYVYFDDGDYWGQGTQVTVSS”, the “polyreactivity (PSR sort gate)” value was “low polyreactivity”.

“QVQLVESGGGLVQAGGSLRLSCAASGRIFESYAMGWYRQAPGKERELVAAISRSGGSTYYADSVKGRFTISRDNAKNTVYLQMNSLKPEDTAVYYCNTYYYHHYDYWGQGTQVTVSS”: the “polyreactivity (PSR sort gate)” value is on record as “high polyreactivity”.

For the sequence “QVQLEESGGGLVQAGGSLRLSCAASGSILVRYAMGWYRQAPGKERELVAAITYSVGSTYYADSVKGRFTISRDNAKNTVYLQMNSLKPEDTAVYYCAASGGTEVLLMDYWGQGTQVTVSS”, the “polyreactivity (PSR sort gate)” value is “low polyreactivity”.

Regarding “QVQLVESRGGLVQAGGSLRLSCAASGIIFDTNAMGWYRQAPGKERELVATITQRGGTTYYADSVKGRFTISRDNAKNTVYLQMNSLKPEDTAVYYCNAGPVRLPYDSWGQGTQVTVSS”, the “polyreactivity (PSR sort gate)” value is listed as “low polyreactivity”.

For “QVQLVESGGGLVHAGGSLRLSCAASGFIFPYYAMGWYRQAPGKERELVAAITSGGSTNYADSVKGRFTISRDNAKNTVYLQMNSLKPEDTAVYYCAKRLKRWSVYGRYDYWGQGTQVTVSS”, the “polyreactivity (PSR sort gate)” value is “high polyreactivity”.

For “QVDLVESGGGLVQAGGSLRLSCAASGRTFQFNGMGWYRQAPVKERELVAGITSGGSTYYADSVKGRFTISRDNAKTTVYLQMISLKPEDTAVYYCAKDDPYFRGSPYFGRYPYGYWGQGTEVTVSS”, the “polyreactivity (PSR sort gate)” value is listed as “high polyreactivity”.

Regarding “QVQLVESGGGLVQAGGSLRLSCAASGSTFDFNAMGWYRQAPGKERELVAAITGSGGSTDYADSVKGRFTISRDNAKNTVYLQMNSMKPEDTAVYYCNAGKTIDYRDGVGYDHWGQGTQVTVSS”, the “polyreactivity (PSR sort gate)” value is listed as “low polyreactivity”.

As to “QVQLVESGGGLVQAGGSLRLSCAASGSIFKRYAMGWYRQAPGKERELVAAISTSGGRTYYADSVKGRFTISRDNAKNTVYLQMNRLNQEDTAVYYCAADIWARYYFWGFEHDYWGQGTQVTVSS”, the “polyreactivity (PSR sort gate)” value is “low polyreactivity”.

As to “QVQLVESGGGLVQAGGSLRIRCAASGSIFWYNAMGWYRQAPGKERELVAAISYRGGSTYYADSVKGRFTISRDNAKNTVYLQMNSLKPEDTAVYYCAAEYGDVYVWTYDYWGQGTQVTVSS”, the “polyreactivity (PSR sort gate)” value is “high polyreactivity”.

“QVQLVESGGGLDQAGGRLRLSSAASGTTFAVNAMGWYRQAPGKERELVAAITSGGSTKYADSVKGRFTISRDNAKYSVYFQMNSLKREDSAVYYIPDSKLWALGWKFYYWGQGTQVTVSS”: the “polyreactivity (PSR sort gate)” value is given as “low polyreactivity”.

On to “QVQLVESGGGLVHAGGSLRLSCAASGSIFYRNVMGWYRQAPGKERELVAAISRSGGSTYYADSVKGRFTISRDNAKNTVYLQMNSLKPEDTAVYYCAVRYSPFYYWGQGTQVTVSS”, for which the “polyreactivity (PSR sort gate)” value is recorded as “high polyreactivity”.

In the case of “QVQLVESGGGLVQAGGSLRLSCAASGYTSYRYAMGWYRQAPGKERELVAAINWSGSSTYYADSVKGRFTISRDYAKNTVYLQMNSLKPEDTAVYYCAARRYRSPIGGYDYWGQGTQVTVSS”, the “polyreactivity (PSR sort gate)” value is listed as “high polyreactivity”.

In the case of “QVQLVESGGGLVQAGGSLRLSCAASGSIFGDNAMGWYRQAPGKERELVAAISSSGGSTYADSVKGRFTISRDNAKNTVYLQMNSLKPEDTAVYYCATQIAWGTYVINPQMDYWGQGTQVTVSS”, the “polyreactivity (PSR sort gate)” value is recorded as “low polyreactivity”.

Turning to “QVQLVESGGGLVQAGGSLRLSCAASGFTFVRYVMGWSRQAPGKERELVAAISRSGGSTHYADSVKGRFTISRDNAKNTVYLQMNSLKPEDTAVYYCAAASPRWPGQGDYWGQGTQVTVSS”, the “polyreactivity (PSR sort gate)” value is recorded as “high polyreactivity”.

For the sequence “QVQLVESGGGLVQAGGSLRLSCAASGITIVRNAMGWYRQAPGKERELVAAISSGGSTYYADSVKGRFTISRDNAKISVYLQMNSLKPEDTAVYYCAAVPEYYEYSPYDYWGQGTQVTVSS”, the “polyreactivity (PSR sort gate)” value is “low polyreactivity”.

Take “QVHLVESGGGLDQAGASLRITSAATGFTFRQNVKRWYRQAPGKESEFVATITWSGGRTSYADSVKGRFTISRDNAKNTVYLQMNSLKPEDTAVYYCAARFFSYSQYAYNYWGQGTQVTVSS”: the “polyreactivity (PSR sort gate)” value is “high polyreactivity”.

Regarding “QVQLVESGGGLVQAGGSLRLSCASSGGTFPYYAMGWYRQAPGKERELVAAINYSCGSTYYADSVKGRFTISRDNAQYTVYLQMTSLKPEDTAVFYCAARYQFYRYDSTYSYWGQGTQVTVSS”, the “polyreactivity (PSR sort gate)” value is listed as “high polyreactivity”.

Take “QVQLVESGGGLVQAGGSLRLSCAASGSTSRINAMGWYRQAPGKERELVAGIRANGGRTYYADSVKGRFTISRDNAKNTVYLQMNSLKPEDTAVYYCNKRNWPAEDSWGQGTQVTVSS”: the “polyreactivity (PSR sort gate)” value is “high polyreactivity”.

For “QVQLVESGGGLVQAGGSLRLSCAAYGRTFSHYAMGWYRQAPGKERELVAGITSGGRTYYADSVKGRFTISRDNAKNTVYLQMNSLKPEDTEVYYCAIRRYTAIWYGYWGQGTQETVSS”, the “polyreactivity (PSR sort gate)” value is recorded as “high polyreactivity”.

For the sequence “QVQLVESGGGLVQAGGSRLICAASGLIFIWYTMGWYRQAPGKERELVAAIDSSGGNTYYADSLKGRFSISRDNAKNTVYLQMNSLKPEDTAVYYCAKDVGHGAGNLMGYWGQGTQVTVSS”, the “polyreactivity (PSR sort gate)” value is recorded as “low polyreactivity”.

For the sequence “QVQLVESGGGLVQAGGSLRLSCAASGSTFKYYAMGWYRQAPGKERELVATITWSGTSTNYADSVKGRFTISRDNAKHTVYLQMHSLKPEDTAVYYCAARSKRRNYDYWGQGTQVTVSS”, the “polyreactivity (PSR sort gate)” value was “high polyreactivity”.

Consider “QVQLVESGGGLVQAGGSLRLICAASGRIFVGNTMGWYRQAPGKERELVAAITSSGGSTYYADSVKGRFTISRDNAKNTVYLQMNSLKPEDTAVYYCAARTREYQWRYYYWGQGTQVTVSS”, for which the “polyreactivity (PSR sort gate)” value is given as “high polyreactivity”.
